Assay results: paper PMC3690595 (Biochemistry, 2013)

Target: the molecule itself
Experiment: 2D-DIGE with tandem mass spectrometry of picked spots

B1: βB1-crystallin (natural protein, mouse (endogenous in mouse lens), UniProt Q9WVJ5 1-250, looked up)
chain: MSQAAKASATTAVNPGPDGKGKGAPSTGPAPAPGPTPVPASVPRPAAKVGDLPPGSYRLIVFEQENFQGRRVEFSGECLNLGDRGFDRVRSLIVVSGPWVAFEQSAFRGEMFVLEKGEYPRWDTWTSSYRSDRLMSFRPIRMDSQEHKICLFEGANFKGNTMEIQEDDVPSLWVYGFCDRVGSITVSGGTWVGYQYPGYRGYQYLLEPGDFRHWNEWGAFQPQMQAVRRLRDRQWHQEGCFPVLTAEPPK
stoichiometry N: 2
